The series concerns the molecule itself. As to the kind of experiment: cryo-EM structure.

The record followed here is PMC13344147 (Structure (London, England : 1993), 2025).

B1: human CPEB3 residues 1-217 (prion-like domain 1 construct) (domain or fragment, UniProt Q8NE35 1-217, looked up)
chain: MQDDLLMDKSKTQPQPQQQQRQQQQPQPESSVSEAPSTPLSSETPKPEENSAVPALSPAAAPPAPNGPDKMQMESPLLPGLSFHQPPQQPPPPQEPAAPGASLSPSFGSTWSTGTTNAVEDSFFQGITPVNGTMLFQNFPHHVNPVFGGTFSPQIGLAQTQHHQQPPPPAPAPQPAQPAQPPQAQPPQQRRSPASPSQAPYAQRSAAAAYGHQPIMT
For the protein B1, the binding result is recorded as “binds”.
